In data set [1] the test system is T1, Fluoresceinyl-DLDVPIPGRFDRRVpSVAAE (phosphorylated, fluorescein-tagged RII peptide).
T1 sequence: DLDVPIPGRFDRRVSVAAE

Consider one substance from patent US20100159475.

Take Recombinant calcineurin: in data set [1], the “amount of dephosphorylated peptide in the unbound fraction after titanium oxide (mass spectrometry)” value is recorded as 30-fold increase in the amount of dephosphorylated peptide in the unbound fraction with the addition of recombinant calcineurin, the “dephosphorylation of the peptide (fluorimetric calcineurin assay)” value is on record as “Calcineurin in normal buffer resulted in dephosphorylation of the peptide in a dose-dependent manner” and the “relative amount of dephosphorylated to phosphorylated peptide (mass spectrometry)” value was “recombinant calcineurin stimulated a dose-responsive increase in the relative amount of dephosphorylated to phosphorylated peptide”. In the data set on autoinhibitory peptide, the “dephosphorylation by 0.2 ng calcineurin (fluorimetric calcineurin assay)” value is “Dephosphorylation by 0.2 ng calcineurin was significantly reduced (ANOVA) by each of these conditions”.
